Assay results published in article PMC6838055, “Effective genome editing and identification of a regiospecific gallic acid 4-O-glycosyltransferase in pomegranate (Punica granatum L.)” (Horticulture Research, 2019).

Substrate: O=C(O)c1cc(O)c(O)c(O)c1
Experiment: HPLC product assay, steady-state kinetics
Assay type: biochemical, Punica granatum
Conditions: UDP-glucose co-substrate (0.6 mM in standard assay), 50 mM MES pH 5.5, 3 mM 2-mercaptoethanol, 30 °C, gallic acid 30-500 μM

B1: PgUGT72BD1 (Punica granatum) (protein)
chain: MAQVSTKPHVALFASPGIGHLIPVLQLGERFVSRHNFVVTVFVVVTDAATAESQLKQQSSYKNLLNVVLLPPVDLTSLTNKPLAILSQLVLIVRQSLPDLRSAIASMKSRPTALIVDLFGTEAFAIADEFHMLKYEFFTTNAWFLALTLYAPHVDREHEDDHILRHMPLHIPGCASILYEDTVDVYTDRNDKLLHDDYVRIGRRLAEADGILINTWESLEPKTLQALRDPKAFGRFSQVRILPIGPLVSGFQSFGSSQPKDDILQWLDDQPTESVLYVSFGSGGTLSADQLTELAWGLEQSQHRFIWVVRPPQENSACGAYFEQAKRADGTPEYLPDGFVTRTQKLGLVVPMWAPQREILAHPSIGGFLSHCGWNSTLESLINGVPLIAWPLYAEQTMNATMLTDQLGIAARSRELMPNGVLGRHEIEKMVRTVMNKEDAKGETIRARSQDLKRTALLAVAEGGSSYAALSQVAQECKIGLVGLKQRARGA
notes: codon-optimized ORF in pET28a, His-tagged, E. coli BL21(DE3), Ni-NTA purified; no signal peptide detected
Km: 190 ± 70 µM | kcat: (2.83 ± 0.5) × 10^−3 s^−1
